This note sets out measurements from patent US20040018977A1 (published 2004).

The target of the assay is T1, NCK2, aa 1-380, Activation Domain (AD) fusion (human, UniProt O43639 1-380).
T1 construct: range 1-380; Also used for the sentences that name NCK2 as a partner of the cytoplasmic domain
Nature of the assay: yeast two-hybrid matrix mating assay, beta-gal read-out. As for the experimental part:
Matrix Mating Haploid cells for the PathCalling matrix mating assay are grown up individually in 384 well plates using selective liquid media. After 1-2 days, the mating is done entirely in a nutrient rich media. The resulting diploid cells are then selected using a selective liquid media. The optical density (O.D.) of the diploid cells is measured using a spectrophotometer to measure and the cells are then transferred to a fresh plate for a Beta-gal assay. This assay is performed to determine if there is an interaction between the two proteins being tested. The Beta-gal assay is performed as follows:
2. The β-gal buffer is made using the following (per 384 well plate): 7.1 ml Sigma water, 7.5 ml 4X Z-buffer, 0.3 ml 20% IGEPAL, 30 mg CPRG, 75 μl Lyticase (10,000 U/ml) and 3.30 μl of β-gal buffer is added to each well of the plate made in step 1 using a multi-drop 384.

T1 sequence (O43639 whole entry, the tested form may be a part): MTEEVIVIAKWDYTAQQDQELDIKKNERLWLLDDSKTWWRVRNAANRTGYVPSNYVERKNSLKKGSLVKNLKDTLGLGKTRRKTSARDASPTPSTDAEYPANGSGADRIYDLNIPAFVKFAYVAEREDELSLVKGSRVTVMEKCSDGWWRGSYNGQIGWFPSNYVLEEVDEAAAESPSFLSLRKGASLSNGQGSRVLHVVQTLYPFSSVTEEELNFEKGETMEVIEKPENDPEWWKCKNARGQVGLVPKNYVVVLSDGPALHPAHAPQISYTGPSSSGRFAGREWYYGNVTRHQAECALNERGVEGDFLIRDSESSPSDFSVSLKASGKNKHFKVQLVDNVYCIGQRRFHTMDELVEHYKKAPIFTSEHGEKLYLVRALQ

B1: CG51896-10, intracellular domain, aa 950-1047, Binding Domain (BD) fusion (other, not shown: large carriers)
chain: TLKRNNTNSSNSSHLSRNQSFGRGDNPPPAPQRVDSIQVHSSQPSGQAVTVSRQPSLNAYNSLTRSGLKRTPSLKPDVPPKPSFAPLSTSMKPNDACT
notes: also called NOV2r
For B1, the binding result is “binds”.

B2: CG51896-10, intracellular domain, aa 690-1047, Binding Domain (BD) fusion (other)
chain: VCDHRRKDVAVVQRKEKELTHSRRGSMSSVTKLSGLFGDTQSKDPKPEAILTPLMHNGKLATPGNTAKMLIKADQHHLDLTALPTPESTPTLQQKRKPSRGSREWERNQNLINACTKDMPPMGSPVIPTDLPLRASPSHIPSVVVLPITQQGYQHEYVDQPKMSEVAQMALEDQAATLEYKTIKEHLSSKSPNHGVNLVENLDSLPPKVPQREASLGPPGASLSQTGLSKRLEMHHSSSYGVDYKRSYPTNSLTRSHQATTLKRNNTNSSNSSHLSRNQSFGRGDNPPPAPQRVDSIQVHSSQPSGQAVTVSRQPSLNAYNSLTRSGLKRTPSLKPDVPPKPSFAPLSTSMKPNDACT
notes: also called NOV2r
As to B2, the binding result was “binds”.

B3: CG51896-10, intracellular domain, aa 805-1047, Binding Domain (BD) fusion (other, not shown: large carriers)
chain: TKDMPPMGSPVIPTDLPLRASPSHIPSVVVLPITQQGYQHEYVDQPKMSEVAQMALEDQAATLEYKTIKEHLSSKSPNHGVNLVENLDSLPPKVPQREASLGPPGASLSQTGLSKRLEMHHSSSYGVDYKRSYPTNSLTRSHQATTLKRNNTNSSNSSHLSRNQSFGRGDNPPPAPQRVDSIQVHSSQPSGQAVTVSRQPSLNAYNSLTRSGLKRTPSLKPDVPPKPSFAPLSTSMKPNDACT
notes: also called NOV2r
As for B3, the binding result was “binds”.
